Results reported in publication PMC10981675, “Structural basis for phage-mediated activation and repression of bacterial DSR2 anti-phage defense system” (Nature Communications, 2024).
Numbering of substitutions follows the chain as printed. Names may count otherwise.

B1: defense-associated sirtuin 2 (DSR2), wild type (enzyme, Bacillus subtilis)
chain: MVKVDLESKRYGEKLKEVFLMLDNNVVECIKEITESSRNGKLVFFVGAGVSTLSDYPQWWRLVDKYHEELYGSPKKGNYSSDEYLRIPQIFYNVKGEMAFDGILKDFFQVDKPTNPIHDKILAMNPAHVITTNYDNLIDTACWKRGKYFSVISAEEDVANATSSRYLLKVHGDFRKGFKGENVVLKEDDYLNYDQNYPLISNLMKTIIATHTIVFIGYGLGDYNINMLLNWVRKLQKDSFHKPFFIRTDPSPIENETLIYYENKGLRIIDAASLIDSNEYDYLERYSAVMDLLIESQENKFITKDDEVIDYIYGKISPLFALQYIRKIDLKHVFEYDYHFEVNGTVVRHKNKGFGYMERFFELKESCDERSKLSKKQYERFNALFNFFEKNGVICMAKDAGTLNTSIEINSLAYHGKYDVMKKFIEEQSVSIEDDYKKAFFLACLGRWEESYDLYSNIILNSIDESNGCVYYLSQINRYRIYQSITQAVTQFNGLGLLTFGRHYKPFTDEFLARIEREMTNFNIDDLFNGMPFEFQKKYKILEFLSDNQFLYDDTVKLFELTNKVRSEMSEGSYSFGMSSDIVVLLRLYDNLRFLYENCLWSVSFHEFHQYIRNSMSLLIEKAEYERTRDIDELGFSFFGKKSGFFMEYYDFVNISRHFKIDDIKNLERSCSIDKIRFGEQEKIEEYLVGIAEEITKQFSANGMNVVFYTQFISEAKAALYFAKYVKLSEEGLGKIVKALLFYFPERDLDIGKRYVWLERLTKCNELPKSIISIIDDFLVLQAEKHIDQNYSEVSSNGLYSRDYGALIKHFEKNFISKRLSEITLCLTQDKQKQIDFLFKLLPLLSTNAKSHLLSFKSVENINDLMNGIRIGLIDEFTPEHEELIIEYLETRKVNYIVEKEKGIQTFSSNDYMSTFGIWYFLEEINNSKMEEFIGMDDQYDFFVDPENFDYKKFIPSWLKNYNDKLLGKIAGNKHMKHHVIEVLKERVKNSNDKRYLEILMNYFI
notes: DSR2 (defense-associated sirtuin 2) of Bacillus subtilis, NCBI protein WP_029317421; codon-optimized synthetic gene in pRSFDuet MCS1; Tetramer (dimer of dimers) by cryo-EM and SEC; also called WT DSR2; wild-type DSR2; source: E. coli BL21 Star (DE3), purified (Ni-NTA, HiTrap Q, Superdex 200); also co-purified with tube or DSAD1; not shown: 6×His, N-terminal, kept
B2: DSR2 H171A (enzyme, Bacillus subtilis)
chain: B1 chain with H171A
notes: DSR2 of Bacillus subtilis, NCBI protein WP_029317421, with H171A; source: E. coli, co-expressed with the tail tube protein, co-purified
B3: tail tube protein of phage SPR, wild type (natural protein)
chain: MKTVIQDTADVYFKRKSDGKLVFTAEAQTASFSQAISEEKLRGGIGNKPLYILKSEKEINLTVKNAFFDLEWLAMTQGETIQEETKVKVFDREHGLIVDDTNKVTLKGKPVSDVTFYNKKGLTYKIAVSTDGTYTIPTAFAAAKDKLTAVYQIEKVGRRLAIKASKFSERYEVEYRTIAYNPDTEEVYSDIYIQFPNVSPSGEFEMSLENGNALAPEIKFEALADTDTDEMAVVIEASRDENTAAPVEDTTGSTQSSDLGGTTE
notes: tail tube protein of Bacillus phage SPR; domains D1 and D2; GST removal with HRV 3C is told for the DSR2-tube complex; Alone it runs as monomeric and oligomeric species on SEC; Only D1 is seen in the maps; also called phage tail tube protein; source: E. coli BL21 Star (DE3); purified alone, or co-purified with DSR2 (Ni-NTA, glutathione resin, HRV 3C cleavage, HiTrap Q, Superdex 200); not shown: …

Columns and labels:
[1] = target: T1, DSR2–tube complex (Bacillus subtilis, UniProt P0DXN8); test: fluorescence NADase assay (ex […] nm, em […] nm); type: biochemical; conditions: 400 nM protein, 50 μM εNAD+, 10 mM MES pH 6.5, 75 mM KCl, 2 mM MgCl2, 37 °C
T1 construct: gene BKP58_08510; full-length DSR2, N-terminal 6xHis, E. coli BL21 Star (DE3), codon-optimized; tube GST tag removed by HRV 3C; tetrameric DSR2; DSR2:tube 4:2 (wild type) or 4:4 (H171A with NAD+); with Tail tube protein (Bacillus phage SPR)
T1 sequence (P0DXN8 1-1005): B1 chain
T1 sequence (A0AAE9G628 1-264 partner): B3 chain

[2] = target: defense-associated sirtuin 2 (DSR2), wild type (Bacillus subtilis) (UniProt P0DXN8); test: cryo-EM structure; co-purified complex incubated with 1 mM NAD+ before freezing; conditions: scale: DSAD1 per DSR2
[3] = target: defense-associated sirtuin 2 (DSR2), wild type (Bacillus subtilis) (UniProt P0DXN8); test: cryo-EM structure; purified DSR2 (~25 mg/mL), co-purified DSR2-DSAD1 (~25 mg/mL) or co-purified DSR2-tube (~4 mg/mL, polylysine-treated grid); no NAD+ added; Titan Krios 300 kV; conditions: scale: DSAD1 per DSR2
[4] = target: the molecule itself; test: SEC; purified DSR2 alone; Superdex 200 Increase 10/300 GL, 20 mM Tris-HCl pH 7.5, 150 mM NaCl, 1 mM DTT
[5] = target: the molecule itself; test: cryo-EM structure; co-purified complex incubated with 1 mM NAD+ before freezing
[6] = target: B1; test: cryo-EM structure; purified DSR2 (~25 mg/mL), co-purified DSR2-DSAD1 (~25 mg/mL) or co-purified DSR2-tube (~4 mg/mL, polylysine-treated grid); no NAD+ added; Titan Krios 300 kV; conditions: both partners purified
[7] = target: B2; test: cryo-EM structure; co-purified complex incubated with 1 mM NAD+ before freezing; conditions: both partners purified
[8] = target: the molecule itself; test: SEC; purified tail tube protein alone

Molecule: NC(=O)c1ccc[n+]([C@@H]2O[C@H](COP(=O)(O)OP(=O)(O)OC[C@H]3O[C@@H](n4cnc5c4ncn4ccnc54)[C@H](O)[C@@H]3O)[C@@H](O)[C@H]2O)c1 [εNAD^+]
- fluorescence NADase assay (ex 300 nm, em 410 nm) [1]: The purified DSR2–tube complex exhibited pronounced NADase activity

Molecule: DSR anti-defense 1 (DSAD1) (natural protein)
- stoichiometry N [2]: 0.5
- stoichiometry N [3]: 0.5

Molecule: B1
- stoichiometry N [4]: 4

Molecule: B2
- stoichiometry N [5]: 4

Molecule: B3
- stoichiometry N [6]: 0.5 tube per DSR2 (printed as DSR2:tube 4:2)
- stoichiometry N [7]: 1 tube per DSR2 (printed as DSR2:tube 4:4)
- binding result [8]: binds
